Read-outs that look alike come from different tables or passages of the source.

Among the data in PMC3592463 are binding result and Kd values, retold here.

The target of data set [1] is T1, Hfq (E. coli, UniProt P0A6X3 1-102). As to the kind of experiment: MST.
The target in data set [2] is T2, Tat(44-61) (UniProt P04608 44-61).
T2 chain: GISYGRKKRRQRRRAHQN
As to the kind of experiment: MST.

In data set [3] the target is T1, Hfq. As to the kind of experiment: MST. The source holds these as a separate data set.
In data set [4] the target is T2, Tat(44-61). As to the kind of experiment: MST.
Data set [5] has as its target T1, Hfq. Kind of data set: EMSA.

T1 sequence (P0A6X3 whole entry): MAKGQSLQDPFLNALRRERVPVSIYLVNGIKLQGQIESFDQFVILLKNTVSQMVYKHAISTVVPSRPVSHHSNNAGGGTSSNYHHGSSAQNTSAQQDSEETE

B1: JM6 (dsRNA)
RNA 1: GACUCAGUGUCAGAGUCACUG
RNA 2: CAGUGACUCUGACACUGAGUC
Take B1: the binding result with Hfq [1] is “no binding”.

Take AACUCAAUGUCUUAGUUACUG (ssRNA) [J4]: the binding result in the data set with Hfq [1] is listed as “binds”.

B2: ds21R (dsRNA)
RNA 1: AUGUGGAAAAUCUCUAGCAGU
RNA 2: ACUGCUAGAGAUUUUCCACAU
In the case of B2, in the data set with Tat(44-61) [2], binding was put at a Kd of 7.4 ± 0.9 µM.

Consider GACUCAGUGUCAGAGUCACUG (ssRNA) [J6], for which, in the data set with Hfq [1], the binding result is reported as “no binding”.

In the case of AAUUUAAUGUUUUAGUUACUA (ssRNA) [J2], the binding result with Hfq [3] is on record as “binds”.

In the data set with Tat(44-61) [4], AUGUGGAAAAUCUCUAGCAGU (ssRNA) [21R+] had a Kd of 6.3 ± 0.5 µM.

As to AAUUCAAUGUUUUAGUUACUG (ssRNA) [J3], in the data set with Hfq [1], the binding result was “binds”.

AAUUUAAUGUUUUAUUUAUUA (ssRNA) [J1]: the binding result with Hfq [5] is recorded as “binds”.
